From article PMC7341897 (Nature cell biology, 2019)

B1: hSgo1^1-112 labeled with CF555 (domain or fragment, human, UniProt Q5FBB7 1-112, looked up)
chain: MAKERCLKKSFQDSLEDIKKRMKEKRNKNLAEIGKRRSFIAAPCQIITNTSTLLKNYQDNNKMLVLALENEKSKVKEAQDIILQLRKECYYLTCQLYALKGKLTSQQTVEPA
modifications: CF-555 label (Mix-n-Stain CF-555 labeling kit)

Legend:
[1] = target: Survivin (UniProt O15392); assay: fluorescent peptide partitioning into ISB coacervates; details: reference: unmodified H3 peptide; sites T3
[2] = target: INCENP^1-58-Survivin-Borealin (ISB) complex, wild type (UniProt Q9NQS7 1-58; O15392 1-142; Q53HL2 1-280); assay: partitioning of a fluorescent client into preformed coacervates
[3] = target: ISB complex lacking amino acids 139-160 of Borealin (UniProt Q9NQS7 1-58; O15392 1-142; Q53HL2 1-280, Δ139-160); assay: as above

Molecule	binding against the reference [1]	binding result [2]	binding result [3]
histone H3 (synthetic N-terminal peptide) (from UniProt P68431) H3pT3 peptide	stronger		
B1		binds	binds
